For series [1], the target named is XynR (Anaerocellum (f. Caldicellulosiruptor) bescii) (UniProt B9MPD1). Kind of series: fluorescence polarization. The conditions noted are these: 20 mM Tris-HCl, 100 mM NaCl, 0.02% Tween 20, pH 7.4; FP: 5 nM probe, 30 nM-3 uM protein, 22 C; BLI: 100 nM DNA immobilized on streptavidin sensors.
In series [2] the target is T1, XylR (Anaerocellum (f. Caldicellulosiruptor) …, UniProt Q44406 1-399).
T1 sequence: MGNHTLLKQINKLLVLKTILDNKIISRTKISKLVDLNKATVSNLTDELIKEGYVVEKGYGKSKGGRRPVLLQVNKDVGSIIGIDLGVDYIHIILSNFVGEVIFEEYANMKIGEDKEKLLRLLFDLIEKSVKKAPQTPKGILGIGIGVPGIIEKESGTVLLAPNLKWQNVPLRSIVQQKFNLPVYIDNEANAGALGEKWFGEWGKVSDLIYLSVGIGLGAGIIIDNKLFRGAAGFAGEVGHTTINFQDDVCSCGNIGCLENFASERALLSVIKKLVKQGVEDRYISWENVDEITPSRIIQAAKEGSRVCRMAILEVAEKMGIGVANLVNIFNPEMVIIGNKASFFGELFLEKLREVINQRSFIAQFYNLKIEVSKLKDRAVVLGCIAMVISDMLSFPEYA
Kind of series: BLI; 20 mM Tris-HCl, 100 mM NaCl, 0.02% Tween 20, pH 7.4; FP: 5 nM probe, 30 nM-3 uM protein, 22 C; BLI: 100 nM DNA immobilized on streptavidin sensors. The conditions noted are these: protein: recombinant; tags: C-terminal 6xHis; chain copies: 2; label: 5' biotin on strand 1; blunt.

Series [3] has as its target T1, XylR. Kind of series: fluorescence polarization; Hill coefficient <1; 20 mM Tris-HCl, 100 mM NaCl, 0.02% Tween 20, pH 7.4; FP: 5 nM probe, 30 nM-3 uM protein, 22 C; BLI: 100 nM DNA immobilized on streptavidin sensors. The conditions noted are these: protein: recombinant; tags: C-terminal 6xHis; chain copies: 2; label: 5' 6-FAM on strand 1; blunt. For orientation: Fluorescence polarisation rises when a labelled molecule tumbles more slowly, as on binding a larger partner.

As to “ATTTTCATGAAATCGCTTTCCTATCTAA / TTAGATAGGAAAGCGATTTCATGAAAATA [xynMNC FP probe]”, in series [1], the Kd (in general, a measure of binding affinity in units of concentration) worked out at 150 nM.

“ATTGACTAGTAAACGCTTACGATATATT (double strand) [XDL FP probe]” came in with a Kd in series [1] of 161 nM.

In series [1], “TGAGGTTAGAAAGCGGTTTCAAGCAATT (double strand) [xyl3A FP probe]” had a Kd of 169 nM.

For “TAATAATCGAAATCGCTTACAATTCCTG (double strand) [xynR-xylB FP probe]”, the Kd in series [1] was 172 nM.

B1: xylA BLI probe (dsDNA)
DNA 1: ATTATAGATATTAGTTTGTTTAATAAACAAACTAAGTACACGTACT
DNA 2: AGTACGTGTACTTAGTTTGTTTATTAAACAAACTAATATCTATAAT
For B1, in the series with XylR [2], the binding result is “binds”.

B2: xynUVW FP probe (dsDNA)
DNA 1: TAAATATATAAATAGTTTGTTTAAGAAATAAACCAAAAGGAGTGATT
DNA 2: AATCACTCCTTTTGGTTTATTTCTTAAACAAACTATTTATATATTTA
Turning to B2, in the series with XylR [3], the Kd worked out at 165 nM.
